Results from patent publication US20150344570A1 (published 2015).

B1: GpH7-A5/GpH7-B3 variant S267_09D/GpL16-k0 (antibody, human IgG1, kappa)
heavy 1: not shown
heavy 2: not shown
light: DIVMTQSPLSLPVTPGEPASISCQASESLVHSNRNTYLHWYLQKPGQSPQLLIYKVSNRFSGVPDRFSGSGSGTDFTLKISRVEAEDVGVYYCSQNTHVPPTFGQGTKVEIERTVAAPSVFIFPPSDEQLKSGTASVVCLLNNFYPREAKVQWKVDNALQSGNSQESVTEQDSKDSTYSLSSTLTLSKADYEKHKVYACEVTHQGLSSPVTKSFNRGEC
notes: Heterodimerized antibody (He Ab) with the mutation in only one H chain; also called He Ab S267D
B2: GpH7-A5/GpH7-B3 variant H268_13S/GpL16-k0 (antibody, human IgG1, kappa)
heavy 1: not shown
heavy 2: not shown
light: B1 light
notes: Heterodimerized antibody (He Ab) with the mutation in only one H chain; also called He Ab H268S
B3: GpH7-A5/GpH7-B3 variant H268_20W/GpL16-k0 (antibody, human IgG1, kappa)
heavy 1: not shown
heavy 2: not shown
light: B1 light
notes: Heterodimerized antibody (He Ab) with the mutation in only one H chain; also called He Ab H268W
B4: GpH7-A5/GpH7-B3 variant H268_18N/GpL16-k0 (antibody, human IgG1, kappa)
heavy 1: not shown
heavy 2: not shown
light: B1 light
notes: Heterodimerized antibody (He Ab) with the mutation in only one H chain; also called He Ab H268N
B5: GpH7-A5/GpH7-B3 variant S267_10E/GpL16-k0 (antibody, human IgG1, kappa)
heavy 1: not shown
heavy 2: not shown
light: B1 light
notes: Heterodimerized antibody (He Ab) with the mutation in only one H chain; also called He Ab S267E
B6: GpH7-A5/GpH7-B3 variant H268_02A/GpL16-k0 (antibody, human IgG1, kappa)
heavy 1: not shown
heavy 2: not shown
light: B1 light
notes: Heterodimerized antibody (He Ab) with the mutation in only one H chain; also called He Ab H268A
B7: GpH7-A5/GpH7-B3 variant H268_01G/GpL16-k0 (antibody, human IgG1, kappa)
heavy 1: not shown
heavy 2: not shown
light: B1 light
notes: Heterodimerized antibody (He Ab) with the mutation in only one H chain; also called He Ab H268G

What was measured:
[1] = target: T1, FcγRIIIa extracellular domain with C-terminal His tag (human, UniProt P08637 17-208); assay: SPR (Biacore); He/Con_3a (FcγRIIIa) divided by He/Con_2b (FcγRIIb)
T1 construct: extracellular domain; also called FcgRIIIa; 3a; not shown: His tag attached to the C terminus

[2] = target: T2, FcγRIIb extracellular domain with C-terminal His tag (human, UniProt P31994 43-217); assay: SPR (Biacore T100), antibody captured on antigen peptide chip, FcγR as analyte
T2 construct: extracellular domain; Soluble receptor expressed in FreeStyle293 cells, used as analyte in Biacore; also called FcgRIIb; 2b; not shown: His tag attached to the C terminus
T2 sequence (looked up): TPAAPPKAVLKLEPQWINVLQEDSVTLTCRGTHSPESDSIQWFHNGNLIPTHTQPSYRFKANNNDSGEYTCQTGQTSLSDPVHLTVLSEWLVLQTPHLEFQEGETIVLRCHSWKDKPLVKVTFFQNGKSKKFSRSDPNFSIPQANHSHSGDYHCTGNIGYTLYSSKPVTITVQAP
Description: (§1) Analysis of interaction between objective antibody and the FcγR was carried out using Biacore T100 (GE Healthcare). HBS-EP+ (GE Healthcare) was used as the running buffer, and the measurement temperature was set to 25° C. Chips produced by immobilizing the antigen peptide by the amine coupling method to a Series S Sencor Chip CM5 (GE Healthcare), or alternatively, chips produced by allowing preliminarily biotinylated antigen peptides to interact with and immobilize onto a Series S Sensor Chip SA (certified) (GE Healthcare) were used. Antibodies of interest were captured onto an antigen peptide-immobilized chip, and allowed to interact to each FcγR diluted with running buffer. To regenerate and repeatedly use the chip, the antibodies captured on the chip were washed off by reacting 10 mM glycine-HCl, pH 1.5.

[3] = target: T1, FcγRIIIa extracellular domain with …; assay: as above
Description: as §1

T1 sequence (P08637 17-208): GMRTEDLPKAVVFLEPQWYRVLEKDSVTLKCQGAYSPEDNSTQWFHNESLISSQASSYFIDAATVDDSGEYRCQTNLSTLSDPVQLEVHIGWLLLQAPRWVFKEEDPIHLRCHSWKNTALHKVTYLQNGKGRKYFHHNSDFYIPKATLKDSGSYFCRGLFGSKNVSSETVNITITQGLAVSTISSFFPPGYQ

Binder	He_3a/2b (IIIa/IIb) [1] [ratio]	He/Con_2b [2]	He/Con_3a [3]
B1	0.58	310 relative binding, GpH7-A5/GpH7-B3/GpL16-k0 = 100	181 relative binding, GpH7-A5/GpH7-B3/GpL16-k0 = 100
B2	0.76	160 relative binding, GpH7-A5/GpH7-B3/GpL16-k0 = 100	122 relative binding, GpH7-A5/GpH7-B3/GpL16-k0 = 100
B3	0.74	111 relative binding, GpH7-A5/GpH7-B3/GpL16-k0 = 100	82.8 relative binding, GpH7-A5/GpH7-B3/GpL16-k0 = 100
B4	0.67	156 relative binding, GpH7-A5/GpH7-B3/GpL16-k0 = 100	104 relative binding, GpH7-A5/GpH7-B3/GpL16-k0 = 100
B5	0.24	379 relative binding, GpH7-A5/GpH7-B3/GpL16-k0 = 100	91.9 relative binding, GpH7-A5/GpH7-B3/GpL16-k0 = 100
B6	0.73	167 relative binding, GpH7-A5/GpH7-B3/GpL16-k0 = 100	122 relative binding, GpH7-A5/GpH7-B3/GpL16-k0 = 100
B7	0.67	144 relative binding, GpH7-A5/GpH7-B3/GpL16-k0 = 100	96.7 relative binding, GpH7-A5/GpH7-B3/GpL16-k0 = 100
